Test results published in patent US20080242590A1, “New Method 706” (ASTRAZENECA AB, priority 2007, published 2008).

Tests used:
amyloid β 1-40 peptide = experiment: Degradation of amyloid β 1-40 peptide by Fc-Neprilysin and Neprilysin in buffer; assay type: biochemical; conditions: 2.4 μg/ml, Aβ 1-40 300 nM, 2.5 hours at 37° C., buffer
Description: The assay is measuring the remaining amyloid β 1-40 peptide (Bachem) concentration following its incubation in the presence of Neprilysin (R&D Systems) or Fc-Neprilysin with or without Neprilysin inhibitor. 100 μl of reaction mixture containing amyloid β 1-40 peptide (final concentrations, 300, 30 or 3 nM) and/or Neprilysin (2.4 μg/ml), and/or Fc-Neprilysin construct (2.4 μg/ml), and/or Phosphoramidone (10 μM) was incubated in a round bottom 96-well polypropylene plate at 37° C. for 2.5 hours. Following incubation, 10 μl of reaction mixture was transferred into Thermo-Fast© 96-well PCR plate (Abgene, UK) containing 10 μl of Standard Diluent (Gyros AB). Amyloid β 1-40 concentration was determined using Gyrolab Workstation LIF system. Biotinylated anti-amyloid β antibodies (6E10; final concentration 50 μg/ml; Signet) were used as capturing antibodies and polyclonal anti-human amyloid β antibodies (44-348; Biosource) labeled with Alexa Fluor 647 dye (Molecular probes) were used as detection antibodies. Amyloid β 1-40 peptide concentration measurement performed according to the manufacturers protocol using Gyrolab Bioaffy™ Software Package Version 1.8 (Gyros AB). Amyloid β 1-40 peptide degradation by Neprilysin was calculated as a percentage of Amyloid β 1-40 peptide left after incubation in the presence of Neprilysin compared to the amyloid β 1-40 peptide concentration in the absence of Neprilysin.

soluble Aβ40 = experiment: Soluble Aβ40 in plasma after acute i.v. treatment (Example 23); assay type: in vivo, APPSWE-transgenic mice
Description: (§1) The objective with this study was to evaluate the time and dose-response effect of Fc-Nep in plasma of female APPSWE-tg mice after acute intraveneous treatment. The specific purpose is to find an effect on plasma Aβ40 and Aβ42. The γ-secretase inhibitor M-550426 is included as a reference compound.
(§2) 25-31 weeks old female APPSWE-transgenic mice (10 mice/group) received vehicle or the Fc-Nep at 1 or 5 mg/kg as a single intravenous injections. As a reference compound, 300 μmol/kg of the γ-secretase inhibitor M-550426 was used and these animals was treated in 3 hours (4 mice). […] Blood was sampled from vehicle- and compound-treated animals at 1.5 and 3 hours after dose. Blood was withdrawn from anaesthetized mice by heart puncture into pre-chilled microtainer tubes containing EDTA. Blood samples were immediately put on ice prior to centrifugation. Plasma was prepared by centrifugation for 10 minutes at approximately 3000×g at +4° C. within 20 minutes from sampling. After blood sampling, mice were terminated. Aβ40 and Aβ42 levels in plasma were analyzed by commercial ELISA kit obtained from Biosource and Innogenetics, respectively.

soluble Aβ42 = experiment: Soluble Aβ42 in plasma after acute i.v. treatment (Example 23); assay type: in vivo, APPSWE-transgenic mice
Description: as §1, §2

[1] = Plasma exposure (Example 23); assay type: in vivo, APPSWE-transgenic mice; conditions: for Mean plasma exposure: 1.5 hours; for Plasma exposure: 3 hours
Description: The Fc-Nep fusion protein was developed to improve the pharmacokinetic entities of neprilysin with the specific aims to reduce clearance and improve half-life. To test this we have administrated a single i.v. dose of either 1 mg/kg commercial neprilysin or 1 alternatively 5 mg/kg in-house produced Fc-Nep to mice. At set times after dosing blood samples were drawn from the tail vein or by heart puncture at termination. Upon sampling into tubes containing EDTA the aliquots were put on ice. Plasma was prepared by centrifugation within 15 minutes of sampling (typically 1500 g at 4° C. for 10 min) and immediately frozen. Plasma concentrations of Fc-Nep and neprilysin were determined via immunoassays using either anti-Nep for commercial neprilysin or anti-human IgG for Fc-Nep as capture antibodies while both substances were detected via an anti-Nep antibody. Pharmacokinetic parameters are calculated using a software package (WinNonlin, Pharsight Corporation, USA) and in this example experiment the calculated half-life had increased from about 5 minutes for Nep to about 20 hours for Fc-Nep.
as §2
The concentrations of Fc-Nep in plasma and in the formulations were assayed according to the procedures described in Example 20. The exposure in plasma was analysed in samples from non-treated animals (blank) and in samples from animals treated with M550426.

[2] = Observations of animal health (Example 24); assay type: in vivo, C57BL/6 mice; conditions: 1 or 5 mg/kg single i.v., whole experiment
Aβ 1-42 = experiment: Degradation of Aβ 1-42 in APPswe-tg mouse plasma pool (Example 28); assay type: biochemical; conditions: room temperature, 1 hour
Description: Mouse plasma collected from 9 animals was stored at −70° C. Plasma was thawed and pooled just before the experiment. Aβ 1-40 and 1-42 in plasma pool was degraded by human Fc-Nep or mouse Fc-Nep with corresponding vehicles (50 mM Tris-HCl, 150 mM NaCl pH 7.5). The following final concentrations of the Fc-Nep constructs were used, 100, 32, 10, 3.2, 1, 0.3, 0.1 and […] and the degradation occurred at room temperature for 1 hour while shaking on an orbital shaker. The enzymatic reaction was stopped by adding Phosphoramidone (10 μM final concentration).
After degradation, a final concentration of 4.7 mM EDTA was added to the tg-mouse plasma tubes and the plasma samples were diluted 3 times in sample diluent, before the concentration of Aβ42 was analyzed using ELISA kit Innotest® β-Amyloid1-42 (Innogenetics, lot#177462, ref#80177) according to the manufacturers instructions. The highest concentration (100 μg/ml) of human Fc-Nep and mouse Fc-Nep degraded human plasma amyloid β 1-40 by 71% and 77%, respectively and Aβ 1-42 by 34% and 53%, respectively, as compared to plasma without Fc-Nep treatment.

amyloid β 1-40 = experiment: Degradation of Aβ 1-40 in APPswe-tg mouse plasma pool (Example 28); assay type: biochemical; conditions: room temperature, 1 hour
Description: Mouse plasma collected from 9 animals was stored at −70° C. Plasma was thawed and pooled just before the experiment. Aβ 1-40 and 1-42 in plasma pool was degraded by human Fc-Nep or mouse Fc-Nep with corresponding vehicles (50 mM Tris-HCl, 150 mM NaCl pH 7.5). […] The enzymatic reaction was stopped by adding Phosphoramidone (10 μM final concentration).
After degradation, before concentration of amyloid β 1-40 in tg-mouse plasma pool was measured using ELISA kit (Biosource; KHB3481), the plasma samples were diluted 20 times in standard diluent buffer, according to manufacturers instructions.

[3] = highest concentration 100 μg/ml

B1: Fc-Neprilysin: extracellular domain of human Neprilysin fused to the human IgG2 Fc domain (including hinge), Fc at N-terminus; SEQ ID NO 11 (protein)
chain: ERKCCVECPPCPAPPVAGPSVFLFPPKPKDTLMISRTPEVTCVVVDVSHEDPEVQFNWYVDGVEVHNAKTKPREEQFNSTFRVVSVLTVVHQDWLNGKEYKCKVSNKGLPAPIEKTISKTKGQPREPQVYTLPPSREEMTKNQVSLTCLVKGFYPSDIAVEWESNGQPENNYKTTPPMLDSDGSFFLYSKLTVDKSRWQQGNVFSCSVMHEALHNHYTQKSLSLSPGKYDDGICKSSDCIKSAARLIQNMDATTEPCTDFFKYACGGWLKRNVIPETSSRYGNFDILRDELEVVLKDVLQEPKTEDIVAVQKAKALYRSCINESAIDSRGGEPLLKLLPDIYGWPVATENWEQKYGASWTAEKAIAQLNSKYGKKVLINLFVGTDDKNSVNHVIHIDQPRLGLPSRDYYECTGIYKEACTAYVDFMISVARLIRQEERLPIDENQLALEMNKVMELEKEIANATAKPEDRNDPMLLYNKMTLAQIQNNFSLEINGKPFSWLNFTNEIMSTVNISITNEEDVVVYAPEYLTKLKPILTKYSARDLQNLMSWRFIMDLVSSLSRTYKESRNAFRKALYGTTSETATWRRCANYVNGNMENAVGRLYVEAAFAGESKHVVEDLIAQIREVFIQTLDDLTWMDAETKKRAEEKALAIKERIGYPDDIVSNDNKLNNEYLELNYKEDEYFENIIQNLKFSQSKQLKKLREKVDKDEWISGAAVVNAFYSSGRNQIVFPAGILQPPFFSAQQSNSLNYGGIGMVIGHEITHGFDDNGRNFNKDGDLVDWWTQQSASNFKEQSQCMVYQYGNFSWDLAGGQHLNGINTLGENIADNGGLGQAYRAYQNYIKKNGEEKLLPGLDLNHKQLFFLNFAQVWCGTYRPEYAVNSIKTDVHSPGNFRIIGTLQNSAEFSEAFHCRKNSYMNPEKKCRVW
Amyloid β 1-40 peptide degraded (amyloid β 1-40 peptide; batch 1): 50% | Amyloid β 1-40 peptide degraded (amyloid β 1-40 peptide; batch 2): 42% | Change in plasma Aβ40 (soluble Aβ40; 1 and 5 mg/kg i.v., 3 hours after dose): No significant changes | Reduction of soluble Aβ40 in plasma compared to vehicle (soluble Aβ40; 1 or 5 mg/kg i.v., 1.5 hours after dose, P<0.05): approximately 20% | Change in plasma Aβ42 (soluble Aβ42; 1 mg/kg i.v., 1.5 hours): No significant change | Reduction of Aβ42 in plasma compared to vehicle (soluble Aβ42; 5 mg/kg i.v., 1.5 hours, P<0.05): approximately 20% | Change in plasma Aβ42 (soluble Aβ42; any of the doses (1 and 5 mg/kg), 3 hours): No significant changes | Mean plasma exposure ([1]; 1 mg/kg i.v.): 9.8 µg/mL | Plasma exposure ([1]; 1 mg/kg i.v.): 7.6 µg/mL | Mean plasma exposure ([1]; 5 mg/kg i.v.): 33.6 µg/mL | Plasma exposure ([1]; 5 mg/kg i.v.): 27.3 µg/mL | Observations of the animal health [2]: no overt adverse effects | Degradation of Aβ 1-42 compared to plasma without treatment (Aβ 1-42; [3]): 34% | EC50 (Aβ 1-42): 1300 nM | Degradation of amyloid β 1-40 compared to plasma without treatment (amyloid β 1-40; [3]): 71% | EC50 (amyloid β 1-40): 470 nM
